Tests used:
[1] = Body weight change in DIO mice treated for 5 weeks; assay type: in vivo; parameters: key to Significance of Body Weight Change: ns: not significant; *: p < 0.05; **: p < 0.005; ***: p < 0.001; ****: p < 0.0001; details: subcutaneous; for Significance of Body Weight Change: male C57Bl/6 DIO mice, 2-way ANOVA with Dunnett's analysis; for change in body weight: DIO mice
Method: (§1) Male C57Bl/6 DIO mice, 19-20 weeks old (13-14 weeks on high fat diet) at beginning of dosing, were placed into the following treatment groups: Group A—Vehicle, in which the animals were administered vehicle weekly; Group B—Dulaglutide, in which the animals were administered 0.1 mg/kg (2 nmol/kg) of dulaglutide twice per week; Group C—GIPR Ab, in which the animals were administered 5 mg/kg (33 nmol/kg) of antibody 2.63.1 (having a light and heavy chain sequence of SEQ ID NOs: 105 and 106, respectively) weekly and vehicle weekly (the latter being on the alternate dulaglutide dosing day); Group D—GDF15, in which the animals were administered 0.125 mg/kg (1 nmol/kg) of FcΔ10(−)-(G4S)4-GDF15 (SEQ ID NO: 39) (along with its heterodimerization partner, FcΔ10(+,K) (SEQ ID NO: 32)) weekly and vehicle weekly (the latter on the alternate dulaglutide dosing day); Group E—GDF15+Dulaglutide, in which the animals were administered 0.125 mg/kg (1 nmol/kg) of FcΔ10(−)-(G4S)4-GDF15) (along with its heterodimerization partner, FcΔ10(+,K)) weekly and 0.1 mg/kg (2 nmol/kg) of dulaglutide twice per week; Group F—GDF15+GIPR Ab, in which the animals were administered 0.125 mg/kg (1 nmol/kg) of FcΔ10(−)-(G4S)4-GDF15 (along with its heterodimerization partner, FcΔ10(+,K)) weekly and 5 mg/kg (33 nmol/kg) of antibody 2.63.1 weekly. The animals were dosed for 5 weeks with through subcutaneous injection.
Body weight was measured twice per week.

[2] = Food intake measured three consecutive days per week; assay type: in vivo; parameters: key: ns: not significant; *: p < 0.05; **: p < 0.005; ***: p < 0.001; ****: p < 0.0001; details: male C57Bl/6 DIO mice, 2-way ANOVA with Dunnett's analysis
Method: as §1

B1: GIPR Ab: GIPR antibody 2.63.1 having a light and heavy chain sequence of SEQ ID NOs: 105 and 106 (antibody)
heavy: MGWSYIILFLVATATDVHSQVQLQQPGAELVKPGASVKLSCRASGYTFTSNWMHWVKQRPRQGLEWIGEINPSNGRSNYNEKFKTKATLTVDKSSSTAYMQLSSLTSEDSAVYYCARFYYGTSWFAYWGQGTLVAVSAAKTTPPSVYPLAPGSAAQTNSMVTLGCLVKGYFPEPVTVTWNSGSLSSGVHTFPAVLQSDLYTLSSSVTVPSSTWPSETVTCNVAHPASSTKVDKKIVPRDCGCKPCICTVPEVSSVFIFPPKPKDVLTITLTPKVTCVVVDISKDDPEVQFSWFVDDVEVHTAQTQPREEQFASTFRSVSELPIMHQDWLNGKEFKCRVNSAAFPAPIEKTISKTKGRPKAPQVYTIPPPKEQMAKDKVSLTCMITDFFPEDITVEWQWNGQPAENYKNTQPIMDTDGSYFVYSKLNVQKSNWEAGNTFTCSVLHEGLHNHHTEKSLSHSPGK
light: MKLPVRLLVLMFWIPASSSDVVMTQTPLSLPVSLGDQASISCRSSQSLVHSNGDTYLHWYLQKPGQSPKLLIYKVSNRFSGVPDRFSGSGSGTDFTLKISRVEAADLGVYFCSQSTHVPPFTFGGGTKLEIKRADAAPTVSIFPPSSEQLTSGGASVVCFLNNFYPKDINVKWKIDGSERQNGVLNSWTDQDSKDSTYSMSSTLTLTKDEYERHNSYTCEATHKTSTSPIVKSFNRNEC
Significance of Body Weight Change ([1]; D0): ns | Significance of Body Weight Change ([1]; D3): ns | Significance of Body Weight Change ([1]; D7): ns | Significance of Body Weight Change ([1]; D10): ns | Significance of Body Weight Change ([1]; D14): ns | Significance of Body Weight Change ([1]; D17): ns | Significance of Body Weight Change ([1]; D21): ns | Significance of Body Weight Change ([1]; D31): ns | Significance of Body Weight Change ([1]; D35): ns | Significance of Body Weight Change ([1]; D-4): ns | change in body weight ([1]; five weeks after treatment): 2.24% | change in body weight ([1]; two weeks after treatment): −0.91% | Significance of Food Intake Assay ([2]; D2): ns | Significance of Food Intake Assay ([2]; D8): ns | Significance of Food Intake Assay ([2]; D9): ns | Significance of Food Intake Assay ([2]; D10): ns | Significance of Food Intake Assay ([2]; D15): ns | Significance of Food Intake Assay ([2]; D16): ns | Significance of Food Intake Assay ([2]; D17): ns | Significance of Food Intake Assay ([2]; D22): * (p < 0.05) | Significance of Food Intake Assay ([2]; D23): ns | Significance of Food Intake Assay ([2]; D24): ns | Significance of Food Intake Assay ([2]; D29): ns | Significance of Food Intake Assay ([2]; D30): ns | Significance of Food Intake Assay ([2]; D31): ns

Source: US20220152154A1, “GROWTH DIFFERENTIATION FACTOR 15 COMBINATION THERAPY” (Amgen Inc., priority 2019, published 2022)
